Assay results published in patent US6608174B1, “Radiolabeled vasoactive intestinal peptide analogs for diagnosis and radiotherapy” (Dabur Research Foundation, priority 2000, dated 2003).
Square brackets hold non-standard residues; d marks the D form. Ends that are not written are not given here. dPhe(4-Cl) = N[C@H](Cc1ccc(Cl)cc1)C(=O)O; Aib = CC(C)(N)C(=O)O

Columns and labels:
VIP receptors = assay: Displacement assay using 125I labeled VIP (10-28) fragment on human tumor cell lines; settings: inhibition of 125I labeled VIP (10-28) fragment binding
Method: Peptides of the invention were assayed for biological activity in homogeneous competition binding assays using ^125I labeled VIP peptide (SEQ ID NO:1) and in heterogeneous displacement assays using either ^125I labeled VIP (10-28) fragment (Tyr-Thr-Arg-Leu-Arg-Lys-Gln-Met-Ala-Val-Lys-Lys-Tyr-Leu-Asn-Ser-Ile-Leu-Asn-NH2) (SEQ ID NO: 12) or ^125I labeled VIP (SEQ ID NO:1). The assays were performed on a variety of human tumor cell lines.
In the practice of these methods, the peptide was radioiodinated using the iodogen method. Briefly, 5 μg of the peptide in 10 μl of 50 mM PBS (pH 7.5), an appropriate amount of the radioisotope and 50 μg-100 μg iodogen were incubated at room temperature for 15-30 min with occasional mixing. Radioiodinated peptide was purified from unincorporated radioactive iodine by purification on a Sep Pak C18 cartridge, essentially following the same procedure as described for technetium labeling.
Displacement assays were performed at 4-8° C. Briefly, 50,000 cells were plated per well of a 24 well plate and allowed to adhere overnight. Before the assay, the cells were washed twice with ice cold Binding buffer (25 mM HEPES, 10 mM MgCl2 and 1% BSA in RPMI 1640 medium). The cells were incubated for 2-3hrs with an appropriate concentration (0.1-10 nM) of ^125I labeled VIP (10-28) fragment (SEQ ID NO:12) in the presence and absence of the cold ligand (SEQ ID NO: 2) (1 nM-10 μM). The non specific binding was ascertained using 10 μM of VIP. After incubation, the cells were washed thrice with the binding buffer to remove the unbound peptide. The cells were lysed and counts were measured in a Gamma counter. From a comparison of the extent of binding in the presence or absence of the unlabeled peptide, a concentration was determined corresponding to inhibition of ^125I labeled VIP (10-28) fragment binding by 50% (termed the IC50) (TABLE III).
The following tumor cell lines were assayed using the above described displacement assay: HT29 (human colorectal adenocarcinoma); PTC (human primary tumor cells adenocarcinoma); KB (human squamous cell carcinoma); 4451 (human squamous cell carcinoma); L132 (human lung carcinoma); A549 (human lung carcinoma); HBL100 (human breast carcinoma) and PA1 (human ovarian carcinoma).
Cells were grown in RPMI 1640 supplemented with 10% fetal calf serum, glutamine and antibiotics using standard cell culture techniques (see Animal Cell Culture: A Practical Approach, Freshney, ed, IRL press: Oxford, UK, 1992).

[1] = target: VIP receptors on human tumor cell lines (human); assay: displacement of 125I labeled VIP on KB cells
[2] = target: VIP receptors on human tumor cell lines (human); assay: displacement of 125I labeled VIP on PTC cells
[3] = target: high affinity (nM range), low surface expression receptor on human tumor cells (VIP receptor) (human); assay: maximal binding, 125I-SEQ ID NO:2 on PTC cells
[4] = target: low affinity (µM range), high surface expression receptor on human tumor cells (VIP receptor) (human); assay: maximal binding, 125I-SEQ ID NO:2 on PTC cells
[5] = target: VIP receptors on human tumor cell lines (human); assay: displacement of 125I labeled VIP on 4451 cells
[6] = target: VIP receptors on human tumor cell lines (human); assay: displacement of 125I labeled VIP on HT29 cells
[7] = target: high affinity (nM range), low surface expression receptor on human tumor cells (VIP receptor) (human); assay: maximal binding, 125I-SEQ ID NO:2 on 4451 cells
[8] = target: low affinity (µM range), high surface expression receptor on human tumor cells (VIP receptor) (human); assay: maximal binding, 125I-SEQ ID NO:2 on 4451 cells
[9] = target: VIP receptors on human tumor cell lines (human); assay: displacement of 125I labeled VIP on HBL 100 cells
[10] = target: high affinity (nM range), low surface expression receptor on human tumor cells (VIP receptor) (human); assay: homologous radioligand competition, 125I-SEQ ID NO:2 on KB cells
[11] = target: low affinity (µM range), high surface expression receptor on human tumor cells (VIP receptor) (human); assay: as above
[12] = target: high affinity (nM range), low surface expression receptor on human tumor cells (VIP receptor) (human); assay: homologous radioligand competition, 125I-SEQ ID NO:2 on PA1 cells
[13] = target: low affinity (µM range), high surface expression receptor on human tumor cells (VIP receptor) (human); assay: as above
[14] = target: high affinity (nM range), low surface expression receptor on human tumor cells (VIP receptor) (human); assay: homologous radioligand competition, 125I-SEQ ID NO:2 on 4451 cells
[15] = target: low affinity (µM range), high surface expression receptor on human tumor cells (VIP receptor) (human); assay: as above
[16] = target: high affinity (nM range), low surface expression receptor on human tumor cells (VIP receptor) (human); assay: homologous radioligand competition, 125I-SEQ ID NO:2 on HT29 cells
[17] = target: low affinity (µM range), high surface expression receptor on human tumor cells (VIP receptor) (human); assay: as above

“His-Ser-Asp-Aib-Val-4-Cl-D-Phe-Thr-Asp-Asn-Tyr-Thr-Arg-Leu-Arg-Lys-Gln-Leu-Ala-Val-Lys-Lys-Tyr-Leu-Asn-Ser-Ile-Leu-Asn-NH2 (HSD[Aib]V[dPhe(4-Cl)]TDNYTRLRKQLAVKKYLNSILN-NH2; N-terminus assumed; SMILES CC[C@H](C)[C@H](NC(=O)[C@H](CO)NC(=O)[C@H](CC(N)=O)NC(=O)[C@H](CC(C)C)NC(=O)[C@H](Cc1ccc(O)cc1)NC(=O)[C@H](CCCCN)NC(=O)[C@H](CCCCN)NC(=O)[C@@H](NC(=O)[C@H](C)NC(=O)[C@H](CC(C)C)NC(=O)[C@H](CCC(N)=O)NC(=O)[C@H](CCCCN)NC(=O)[C@H](CCCNC(=N)N)NC(=O)[C@H](CC(C)C)NC(=O)[C@H](CCCNC(=N)N)NC(=O)[C@@H](NC(=O)[C@H](Cc1ccc(O)cc1)NC(=O)[C@H](CC(N)=O)NC(=O)[C@H](CC(=O)O)NC(=O)[C@@H](NC(=O)[C@@H](Cc1ccc(Cl)cc1)NC(=O)[C@@H](NC(=O)C(C)(C)NC(=O)[C@H](CC(=O)O)NC(=O)[C@H](CO)NC(=O)[C@@H](N)Cc1c[nH]cn1)C(C)C)[C@@H](C)O)[C@@H](C)O)C(C)C)C(=O)N[C@@H](CC(C)C)C(=O)N[C@@H](CC(N)=O)C(N)=O) [SEQ ID NO:2, VIP receptor antagonist, preferred peptide (Xxx = Aib)]” was tested, and the IC50 (VIP receptors; 4451 cells) was 0.383 nM, the IC50 (VIP receptors; A549 cells) was 0.275 nM and the IC50 (VIP receptors; HBL 100 cells) was 0.236 nM. For the same molecule, the IC50 (VIP receptors; HT29 cells) was 0.22 nM, the IC50 (VIP receptors; KB cells) was 0.35 nM and the IC50 (VIP receptors; L132 cells) was 0.228 nM. It also gave an IC50 (VIP receptors; PA1 cells) of 0.31 nM and an IC50 (VIP receptors; PTC cells) of 0.132 nM.

B1: VIP analog His-Ser-Asp-Aib-Val-4-Cl-D-Phe-Thr-Asp-Asn-Tyr-Thr-Arg-Leu-Arg-Lys-Gln-Leu-Ala-Val-Lys-Lys-Tyr-Leu-Asn-Ser-Ile-Leu-Asn-NH2 (SEQ ID NO: 2) (peptide)
peptide: HSD[Aib]V[dPhe(4-Cl)]TDNYTRLRKQLAVKKYLNSILN-NH2
modifications: also: 125I-labelled form (iodogen) used as tracer
B1 showed an IC50 [1] of 6.2 nM, an IC50 [2] of 2.53 nM and a Bmax1 [3] of 830 pM. The Bmax2 [4] was 96.6 nM, the IC50 [5] was 7.1 nM and the IC50 [6] was 2.78 nM. It also gave a Bmax1 [7] of 579 pM, a Bmax2 [8] of 51 nM and an IC50 [9] of 5.41 nM. It also gave a Kd [10] of 4.2 nM, a Kd [11] of 1840 nM and a Kd [12] of 5.6 nM. The Kd [13] was 1890 nM, the Kd [14] was 4.48 nM and the Kd [15] was 1910 nM. It also gave a Kd [16] of 3.8 nM and a Kd [17] of 1370 nM.
